The text below walks through data of patent US20140087995A1 (published 2014).

In the assay the target is T1, human calcitonin receptor (human, UniProt P30988 25-474).
T1 construct: whole, on cells; Assay used cell membranes of the transfected BHK cells; also called hCTR; hCT
T1 sequence (looked up): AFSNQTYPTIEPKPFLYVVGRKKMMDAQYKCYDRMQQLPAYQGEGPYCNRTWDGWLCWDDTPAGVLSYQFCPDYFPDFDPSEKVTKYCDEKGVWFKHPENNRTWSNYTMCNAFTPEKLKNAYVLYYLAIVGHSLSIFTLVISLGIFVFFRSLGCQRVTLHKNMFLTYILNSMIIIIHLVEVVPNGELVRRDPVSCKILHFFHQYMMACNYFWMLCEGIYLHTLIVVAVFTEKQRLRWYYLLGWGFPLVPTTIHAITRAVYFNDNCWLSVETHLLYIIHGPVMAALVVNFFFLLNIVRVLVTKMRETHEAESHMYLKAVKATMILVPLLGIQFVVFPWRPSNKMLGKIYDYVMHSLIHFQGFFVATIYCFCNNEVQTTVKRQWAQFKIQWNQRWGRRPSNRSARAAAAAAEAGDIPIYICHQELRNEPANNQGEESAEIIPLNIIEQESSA
Kind of assay: SPA radioligand competition (125I-calcitonin), membranes of BHK cells with human calcitonin receptor. Summed up:
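BHK hCTR membranes 35 ng/μL + SPA beads 0.05 mg/well; buffer 50 mM Hepes pH 7.4, 1 mM CaCl2, 5 mM MgCl₂, 0.1% OA, 0.02% Tween20. 120 min, 25° C., shaking. Scintillation count; IC50 by one-site binding competition.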

Numbered stars: 1 amine (or outer) side, 2 acyl side, 3 side chain; on linkers, the order of the positions; unused ones are H or OH. Bridge positions count the residues as written; N and C are the ends. Side chains are listed from the residue outwards. Ends that are not written are not given here. * marks the point of attachment. C20 diacid = O=C(O)CCCCCCCCCCCCCCCCCCC(=O)*; γGlu = O=C(O)[C@H](CCC(=O)[*:2])N[*:1]; AEEA = NCCOCCOCC(=O)O

B1: N^ε1-[2-[2-[2-[[(4S)-4-carboxy-4-(19-carboxynonadecanoylamino)butanoyl]amino]ethoxy]ethoxy]acetyl]-[Arg17,Pro21,Pro27,Pro28,Pro34]-h-amylin (peptide)
peptide: K([AEEA-γGlu-C20 diacid])CNTATCATQRLANFLRHSSPNFGAIPPSTNVGPNTY-NH2
modifications: disulfide 2-7; N-terminus assumed
SMILES: CC[C@H](C)[C@H](NC(=O)[C@H](C)NC(=O)CNC(=O)[C@H](Cc1ccccc1)NC(=O)[C@H](CC(N)=O)NC(=O)[C@@H]1CCCN1C(=O)[C@H](CO)NC(=O)[C@H](CO)NC(=O)[C@H](Cc1c[nH]cn1)NC(=O)[C@H](CCCNC(=N)N)NC(=O)[C@H](CC(C)C)NC(=O)[C@H](Cc1ccccc1)NC(=O)[C@H](CC(N)=O)NC(=O)[C@H](C)NC(=O)[C@H](CC(C)C)NC(=O)[C@H](CCCNC(=N)N)NC(=O)[C@H](CCC(N)=O)NC(=O)[C@@H](NC(=O)[C@H](C)NC(=O)[C@@H]1CSSC[C@H](NC(=O)[C@@H](N)CCCCNC(=O)COCCOCCNC(=O)CC[C@H](NC(=O)CCCCCCCCCCCCCCCCCCC(=O)O)C(=O)O)C(=O)N[C@@H](CC(N)=O)C(=O)N[C@@H]([C@@H](C)O)C(=O)N[C@@H](C)C(=O)N[C@@H]([C@@H](C)O)C(=O)N1)[C@@H](C)O)C(=O)N1CCC[C@H]1C(=O)N1CCC[C@H]1C(=O)N[C@@H](CO)C(=O)N[C@H](C(=O)N[C@@H](CC(N)=O)C(=O)N[C@H](C(=O)NCC(=O)N1CCC[C@H]1C(=O)N[C@@H](CC(N)=O)C(=O)N[C@H](C(=O)N[C@@H](Cc1ccc(O)cc1)C(N)=O)[C@@H](C)O)C(C)C)[C@@H](C)O
notes: Synthetic analogue; also called compound 55
As for B1, the half-maximal inhibitory concentration (IC50) worked out at 2.17 nM.

B2: N^ε1-[2-[2-[2-[[(4S)-4-carboxy-4-(19-carboxynonadecanoylamino)butanoyl]amino]ethoxy]ethoxy]acetyl]-[Arg17,Pro21,Pro27,Pro29,Pro31]-h-amylin (peptide)
peptide: K([AEEA-γGlu-C20 diacid])CNTATCATQRLANFLRHSSPNFGAIPSPTPVGSNTY-NH2
modifications: disulfide 2-7; N-terminus assumed
SMILES: CC[C@H](C)[C@H](NC(=O)[C@H](C)NC(=O)CNC(=O)[C@H](Cc1ccccc1)NC(=O)[C@H](CC(N)=O)NC(=O)[C@@H]1CCCN1C(=O)[C@H](CO)NC(=O)[C@H](CO)NC(=O)[C@H](Cc1c[nH]cn1)NC(=O)[C@H](CCCNC(=N)N)NC(=O)[C@H](CC(C)C)NC(=O)[C@H](Cc1ccccc1)NC(=O)[C@H](CC(N)=O)NC(=O)[C@H](C)NC(=O)[C@H](CC(C)C)NC(=O)[C@H](CCCNC(=N)N)NC(=O)[C@H](CCC(N)=O)NC(=O)[C@@H](NC(=O)[C@H](C)NC(=O)[C@@H]1CSSC[C@H](NC(=O)[C@@H](N)CCCCNC(=O)COCCOCCNC(=O)CC[C@H](NC(=O)CCCCCCCCCCCCCCCCCCC(=O)O)C(=O)O)C(=O)N[C@@H](CC(N)=O)C(=O)N[C@@H]([C@@H](C)O)C(=O)N[C@@H](C)C(=O)N[C@@H]([C@@H](C)O)C(=O)N1)[C@@H](C)O)C(=O)N1CCC[C@H]1C(=O)N[C@@H](CO)C(=O)N1CCC[C@H]1C(=O)N[C@H](C(=O)N1CCC[C@H]1C(=O)N[C@H](C(=O)NCC(=O)N[C@@H](CO)C(=O)N[C@@H](CC(N)=O)C(=O)N[C@H](C(=O)N[C@@H](Cc1ccc(O)cc1)C(N)=O)[C@@H](C)O)C(C)C)[C@@H](C)O
notes: Synthetic analogue; also called compound 54
As for B2, the IC50 is 4.38 nM.

B3: N^ε1-[2-[2-[2-[[(4S)-4-carboxy-4-(19-carboxynonadecanoylamino)butanoyl]amino]ethoxy]ethoxy]acetyl]-[Arg17,Pro21,Pro27,Pro31,His35]-h-amylin (peptide)
peptide: K([AEEA-γGlu-C20 diacid])CNTATCATQRLANFLRHSSPNFGAIPSSTPVGSHTY-NH2
modifications: disulfide 2-7; N-terminus assumed
SMILES: CC[C@H](C)[C@H](NC(=O)[C@H](C)NC(=O)CNC(=O)[C@H](Cc1ccccc1)NC(=O)[C@H](CC(N)=O)NC(=O)[C@@H]1CCCN1C(=O)[C@H](CO)NC(=O)[C@H](CO)NC(=O)[C@H](Cc1c[nH]cn1)NC(=O)[C@H](CCCNC(=N)N)NC(=O)[C@H](CC(C)C)NC(=O)[C@H](Cc1ccccc1)NC(=O)[C@H](CC(N)=O)NC(=O)[C@H](C)NC(=O)[C@H](CC(C)C)NC(=O)[C@H](CCCNC(=N)N)NC(=O)[C@H](CCC(N)=O)NC(=O)[C@@H](NC(=O)[C@H](C)NC(=O)[C@@H]1CSSC[C@H](NC(=O)[C@@H](N)CCCCNC(=O)COCCOCCNC(=O)CC[C@H](NC(=O)CCCCCCCCCCCCCCCCCCC(=O)O)C(=O)O)C(=O)N[C@@H](CC(N)=O)C(=O)N[C@@H]([C@@H](C)O)C(=O)N[C@@H](C)C(=O)N[C@@H]([C@@H](C)O)C(=O)N1)[C@@H](C)O)C(=O)N1CCC[C@H]1C(=O)N[C@@H](CO)C(=O)N[C@@H](CO)C(=O)N[C@H](C(=O)N1CCC[C@H]1C(=O)N[C@H](C(=O)NCC(=O)N[C@@H](CO)C(=O)N[C@@H](Cc1c[nH]cn1)C(=O)N[C@H](C(=O)N[C@@H](Cc1ccc(O)cc1)C(N)=O)[C@@H](C)O)C(C)C)[C@@H](C)O
notes: Synthetic analogue; also called compound 57
For B3, the IC50 worked out at 15.3 nM.
